# Source: PMC10716581, “Fanconi anemia-associated mutation in RAD51 compromises the coordinated action of DNA-binding and ATPase activities”
# Target: RAD51-Q242R (human, UniProt Q06609 1-339, Q242R)
# Assay: EMSA; 2 mM ATP, 10 mM Mg2+; 20 mM Hepes-NaOH pH 7.5, 0.1 mg/ml BSA, 1 mM DTT, 10 mM MgCl2, 150 mM KCl, 2 mM ATP or AMP-PNP or no nucleotide, 2.7 uM (nt) DNA, 37 C 10 min; 8% native PAGE in 1x TBE
# Conditions: protein: recombinant; tags: N-terminal His-tag removed with thrombin; chain copies: 8; label: 5'-Cy5 on strand 1; blunt
# Sequence of RAD51-Q242R (Q06609 whole entry Q242R): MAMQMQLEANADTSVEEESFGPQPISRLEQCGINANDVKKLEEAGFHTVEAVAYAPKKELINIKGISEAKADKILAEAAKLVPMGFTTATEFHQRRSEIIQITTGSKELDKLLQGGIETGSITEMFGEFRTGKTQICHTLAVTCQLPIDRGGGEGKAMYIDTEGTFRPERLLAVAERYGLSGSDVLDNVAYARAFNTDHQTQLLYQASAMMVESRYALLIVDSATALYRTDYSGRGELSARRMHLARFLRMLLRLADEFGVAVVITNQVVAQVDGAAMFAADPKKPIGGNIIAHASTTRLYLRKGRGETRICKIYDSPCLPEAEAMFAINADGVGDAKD
binder,measurement,value
Cy5-OL4/OL5 40-mer (dsDNA) DNA 1: TAATACAAAATAAGTAAATGAATAAACAGAGAAAATAAAG DNA 2: CTTTATTTTCTCTGTTTATTCATTTACTTATTTTGTATTA,binding result,binds
